Laboratory results: US8513188B2, “Formulations comprising cyclic compounds” (priority 2006, dated 2013)

Assays:
[1] = Dissolution of protein Rantes in organic medium (DCM/MeOH), HPLC of supernatant; format: physicochemical; details: for presence of protein in HPLC trace of supernatant: centrifuged
Procedure: Two samples of 0.2 mg each of the folded protein Rantes were taken. One sample was used as standard and dissolved in a fixed volume (300 ul) of water/acetonitrile 50% v/v and 30 ul where injected onto HPLC (FIG. 6, HPLC section A) .
The second sample was suspended in a mixture of DCM/MeOH 70%30% VN, (300 ul). The suspension with solid particles was centrifuged and the surnatant injected onto HPLC volume (30 ul).
Then, 2.0 mg of Nonactine were added and the mixture was vortexed. […] Then, the mixture was centrifuged and 30 ul of the supernatant were injected onto HPLC. […] In the HPLC section C the protein has a different retention time (early elution) from the standard in section A. This phenomenon could be explained by the high percentage of organic solvents (like CH2Cl2 depicted in the figure) that carried through the protein complex with nonactine causing early elution.

mice = assay: In vivo insulin delivery in mice by sub-lingual administration, blood glucose decrease; details: dose 1, sublingual
Procedure: Dose 1: 0.5 mg of desalted human insulin with TFA counter-ions (corresponds to 0.4 mg of non treated standard insulin) are mixed with 60 mg of 18-crown-6. […] The final volume is approximately 310 μl.
The final volume is approximately 310 μl.
Mice were treated with 6.5 μl of mixture 1 and 2, respectively. In dose 1, each mouse was treated with approximately 10 μg of desalted human insulin with TFA counter-ions (corresponds to 8 μg of non treated standard insulin). In dose 2, each mouse was treated with approximately 52 μg of desalted human insulin with TFA counter-ions (corresponds to 41.6 μg of non treated standard insulin).
Results: Insulin Delivery is Measured by Blood Glucose Decrease.

Caco-2 cells [2] = details: insulin incorporated into liposome according to Sigma preparation, no 18-crown-6
Procedure: Liposomes were purchased from Sigma-Aldrich (pre-liposome formulation 8; product No. L3531) and used according to the following procedure. Alternatively, same ingredients were purchased by other suppliers (Avanti), and liposomes were prepared according the procedure indicated by Sigma. Insulin passage was measured by HPLC injection of samples in the receiving chamber.
The organic mixture containing insulin was mixed with the lipid mixture of Sigma, then solvent was evaporated or lyophilized. Water addition generated liposomes that were tested for delivery in Caco-2 cells.

[3] = dose 2: 2.6 mg desalted human insulin + 60 mg 18-crown-6 in about 310 ul mixture
Procedure: Dose 2: 2.6 mg of desalted human insulin with TFA counter-ions are mixed with 60 mg of 18-crown-6. To these solids, 250 μl of a mixture is added, the mixture being composed of 200 μl of a 50% mixture of Propylen glycole and 50% glycerol, 200 mg of mono-decanoyl-glycerol and 100 μl of Cremofor EL. The final volume is approximately 310 μl.

Caco-2 cells [4] = details: insulin at same concentration in physiological buffer, without formulation agent and organic vehicle
Procedure: Should insulin pass through the Caco-2 cell lines, it is found in the receiving chamber.
Insulin Concentration: 3 mg in 125 μl of olive oil/Peg, 92%/8%, v/v
Vehicle: olive oil/Peg (esaethylenglycol)
Positive control: Ibuprofen: 1 mg in 125 μl physiological buffer.
After vortex, 50 μl of the final mixture are added to the caco-2 cell well in double.
Active Sample Preparation (Insulin with Vehicle & Formulation Agent)
After MeOH evaporation, 115 μl of olive oil and 10 μl Peg are added. Vortex for 2-3 minutes. After vortex, 50 μl of the final mixture are added to the Caco-2 cell well in double.
Control (Insulin with Formulation Agent in Physiological Buffer; No Organic or Non-Aqueous Vehicle Present)
Vortex the mixture for 2-3 minutes. […] Then methanol is evaporated and 125 μl of physiological buffer are added; 50 μl of the above solution are added to the Caco-2 cell well in double.

Rantes: folded protein Rantes, a chemokine
presence of protein in HPLC trace of supernatant ([1]; 0.2 mg Rantes suspended in 300 ul DCM/MeOH 70%/30%, no Nonactine): no presence of the protein in the chromatogram

C[C@@H]1C[C@H]2CC[C@H](O2)[C@H](C)C(=O)O[C@@H](C)C[C@@H]2CC[C@@H](O2)[C@@H](C)C(=O)O[C@H](C)C[C@H]2CC[C@@H](O2)[C@H](C)C(=O)O[C@@H](C)C[C@@H]2CC[C@@H](O2)[C@@H](C)C(=O)O1 [Nonactine]
presence of protein in HPLC trace of supernatant ([1]; 0.2 mg Rantes in 300 ul DCM/MeOH 70%/30% + 2.0 mg Nonactine, versus water/acetonitrile standard): presence of the peptide in similar proportion as per the area of the standard
appearance of the mixture after addition of Nonactine ([1]; 0.2 mg Rantes in 300 ul DCM/MeOH 70%/30% + 2.0 mg Nonactine, vortexed): clear solution

Insulin: human insulin, previously desalted; with TFA counter-ions in Example 8
effect on blood glucose (insulin delivery) (mice; about 10 ug desalted human insulin with 18-crown-6, compared with IP injection): close to the effects of IP injection
actual delivery (mice; dose about 7 times the injected control dose): around 10%
insulin passage through Caco-2 cells (Caco-2 cells [2]): did not result measurable insulin passage
solubility of insulin in the dose mixture [3]: precipitation of insulin occurred
insulin passage across Caco-2 cells (Caco-2 cells [4]): does not cross caco-2 cells
